# In the supplement of paper PMC11316812:
# ± gives the standard deviation of the averaged measurements.
# Tests used:
# hTERT-HMEC = assay: percentage of EdU-negative (G0-arrested) nuclei per well, 72 h; higher = more G0 arrest; settings: reference: sequence is the full UniProt precursor, the tested protein was the secreted form or ectodomain
# MCF7 = assay: as above; settings: reference: sequence is the full UniProt precursor, the tested protein was the secreted form or ectodomain
# [1] = protein concentration 0.0238325 µM
# [2] = protein concentration 0.238325 µM
# [3] = protein concentration 0.0225 µM
# [4] = protein concentration 0.03125 µM
# [5] = protein concentration 0.3125 µM
# 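Also: secreted proteins added to cultured cells, EdU pulse at the end, nuclei found by Hoechst imaging, EdU status from nuclear versus surrounding ring intensity ratio, PBS as neutral control.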
sequence,measurement,setting,value
MLPCLVVLLAALLSLRLGSDAHGTELPSPPSVWFEAEFFHHILHWTPIPNQSESTCYEVALLRYGIESWNSISNCSQTLSYDLTAVTLDLYHSNGYRARVRAVDGSRHSNWTVTNTRFSVDEVTLTVGSVNLEIHNGFILGKIQLPRPKMAPANDTYESIFSHFREYEIAIRKVPGNFTFTHKKVKHENFSLLTSGEVGEFCVQVKPSVASRSNKGMWSKEECISLTRQYFTVTNVIIFFAFVLLLSGALAYCLALQLYVRRRKKLPSVLLFKKPSPFIFISQRPSPETQDTIHPLDEEAFLKVSPELKNLDLHGSTDSGFGSTKPSLQTEEPQFLLPDPHPQADRTLGNREPPVLGDSCSSGSSNSTDSGICLQEPSLSPSTGPTWEQQVGSNSRGQDDSGIDLVQNSEGRAGDTQGGSALGHHSPPEPEVPGEEDPAAVAFQGYLRQTRCAEEKATKTGCLEEESPLTDGLGPKFGRCLVDEAGLHPPALAKGYLKQDPLEMTLASSGAPTGQWNQPTEEWSLLALSSCSDLGISDWSFAHDLAPLGCVAAPGGLLGSFNSDLVTLPLISSLQSSE,percentage of EdU-negative,hTERT-HMEC; [1],5.02 ± 0.64%
same,percentage of EdU-negative,hTERT-HMEC; [2],5.96 ± 0.77%
same,percentage of EdU-negative,MCF7; [1],27.3 ± 1.9%
same,percentage of EdU-negative,MCF7; [2],25.3 ± 2.5%
MLPGAWLLWTSLLLLARPAQPCPMGCDCFVQEVFCSDEELATVPLDIPPYTKNIIFVETSFTTLETRAFGSNPNLTKVVFLNTQLCQFRPDAFGGLPRLEDLEVTGSSFLNLSTNIFSNLTSLGKLTLNFNMLEALPEGLFQHLAALESLHLQGNQLQALPRRLFQPLTHLKTLNLAQNLLAQLPEELFHPLTSLQTLKLSNNALSGLPQGVFGKLGSLQELFLDSNNISELPPQVFSQLFCLERLWLQRNAITHLPLSIFASLGNLTFLSLQWNMLRVLPAGLFAHTPCLVGLSLTHNQLETVAEGTFAHLSNLRSLMLSYNAITHLPAGIFRDLEELVKLYLGSNNLTALHPALFQNLSKLELLSLSKNQLTTLPEGIFDTNYNLFNLALHGNPWQCDCHLAYLFNWLQQYTDRLLNIQTYCAGPAYLKGQVVPALNEKQLVCPVTRDHLGFQVTWPDESKAGGSWDLAVQERAARSQCTYSNPEGTVVLACDQAQCRWLNVQLSPQQGSLGLQYNASQEWDLRSSCGSLRLTVSIEARAAGP,percentage of EdU-negative,hTERT-HMEC; protein concentration 0.016 µM,4.47 ± 0.7%
same,percentage of EdU-negative,hTERT-HMEC; protein concentration 0.16 µM,9.62 ± 2.1%
same,percentage of EdU-negative,MCF7; protein concentration 0.016 µM,25.6 ± 2.9%
same,percentage of EdU-negative,MCF7; protein concentration 0.16 µM,31.1 ± 1.1%
MLPLLLLPLLWGGSLQEKPVYELQVQKSVTVQEGLCVLVPCSFSYPWRSWYSSPPLYVYWFRDGEIPYYAEVVATNNPDRRVKPETQGRFRLLGDVQKKNCSLSIGDARMEDTGSYFFRVERGRDVKYSYQQNKLNLEVTALIEKPDIHFLEPLESGRPTRLSCSLPGSCEAGPPLTFSWTGNALSPLDPETTRSSELTLTPRPEDHGTNLTCQMKRQGAQVTTERTVQLNVSYAPQTITIFRNGIALEILQNTSYLPVLEGQALRLLCDAPSNPPAHLSWFQGSPALNATPISNTGILELRRVRSAEEGGFTCRAQHPLGFLQIFLNLSVYSLPQLLGPSCSWEAEGLHCRCSFRARPAPSLCWRLEEKPLEGNSSQGSFKVNSSSAGPWANSSLILHGGLSSDLKVSCKAWNIYGSQSGSVLLLQGRSNLGTGVVPAALGGAGVMALLCICLCLIFFLIVKARRKQAAGRPEKMDDEDPIMGTITSGSRKKPWPDSPGDQASPPGDAPPLEEQKELHYASLSFSEMKSREPKDQEAPSTTEYSEIKTSK,percentage of EdU-negative,hTERT-HMEC; [3],5.12 ± 0.15%
same,percentage of EdU-negative,hTERT-HMEC; protein concentration 0.225 µM,5.64 ± 1%
same,percentage of EdU-negative,MCF7; [3],25 ± 0.77%
same,percentage of EdU-negative,MCF7; protein concentration 0.225 µM,29.26 ± 0.077%
MLPLWTLSLLLGAVAGKEVCYERLGCFSDDSPWSGITERPLHILPWSPKDVNTRFLLYTNENPNNFQEVAADSSSISGSNFKTNRKTRFIIHGFIDKGEENWLANVCKNLFKVESVNCICVDWKGGSRTGYTQASQNIRIVGAEVAYFVEFLQSAFGYSPSNVHVIGHSLGAHAAGEAGRRTNGTIGRITGLDPAEPCFQGTPELVRLDPSDAKFVDVIHTDGAPIVPNLGFGMSQVVGHLDFFPNGGVEMPGCKKNILSQIVDIDGIWEGTRDFAACNHLRSYKYYTDSIVNPDGFAGFPCASYNVFTANKCFPCPSGGCPQMGHYADRYPGKTNDVGQKFYLDTGDASNFARWRYKVSVTLSGKKVTGHILVSLFGNKGNSKQYEIFKGTLKPDSTHSNEFDSDVDVGDLQMVKFIWYNNVINPTLPRVGASKIIVETNVGKQFNFCSPETVREEVLLTLTPC,percentage of EdU-negative,hTERT-HMEC; [4],4.88 ± 0.32%
same,percentage of EdU-negative,hTERT-HMEC; [5],5.95 ± 0.29%
same,percentage of EdU-negative,MCF7; [4],22.6 ± 0.74%
same,percentage of EdU-negative,MCF7; [5],24.8 ± 1.1%
MLPPMALPSVSWMLLSCLILLCQVQGEETQKELPSPRISCPKGSKAYGSPCYALFLSPKSWMDADLACQKRPSGKLVSVLSGAEGSFVSSLVRSISNSYSYIWIGLHDPTQGSEPDGDGWEWSSTDVMNYFAWEKNPSTILNPGHCGSLSRSTGFLKWKDYNCDAKLPYVCKFKD [Q6UW15],percentage of EdU-negative,hTERT-HMEC; [3],4.59 ± 0.17%
same,percentage of EdU-negative,hTERT-HMEC; protein concentration 0.225 µM,5.21 ± 0.13%
same,percentage of EdU-negative,MCF7; [3],25.43 ± 0.028%
same,percentage of EdU-negative,MCF7; protein concentration 0.225 µM,26.8 ± 1.6%
